Results published in FireProtDB (doi:10.1021/bi961660c).
“And” between values parts separate entries of the source, which are not always exact repeats. Equal entries are not always repeated.

Details: Escherichia coli (strain K12), pH 7, 25 °C, GdnHCl, CD, Tris-HCl 20 mM, reversible: yes, whole UniProt chain shown

B1: Tryptophan synthase alpha chain wild type, P0A877 (protein)
chain: MERYESLFAQLKERKEGAFVPFVTLGDPGIEQSLKIIDTLIEAGADALELGIPFSDPLADGPTIQNATLRAFAAGVTPAQCFEMLALIRQKHPTIPIGLLMYANLVFNKGIDEFYAQCEKVGVDSVLVADVPVEESAPFRQAALRHNVAPIFICPPNADDDLLRQIASYGRGYTYLLSRAGVTGAENRAALPLNHLVAKLKEYNAAPPLQGFGISAPDQVKAAIDAGAAGAISGSAIVKIIEQHINEPEKMLAALKVFVQPMKAATRS
  unfolding free energy: 34.4 kJ/mol
transition: 3
  unfolding free energy: 17.7 kJ/mol and 16.7 kJ/mol
